Measurements: patent US9359446B2, “Antibody to a carbonic anhydrase” (Hemholtz Zentrum Munchen—Deutches Forschungszentrum Fur …, priority 2010, dated 2016)

How the values were obtained:
[1] = biological target: CA-II (Homo sapiens, UniProt P00918); assay: EXO 6A10 inhibition of CA II; format: biochemical
[2] = system: non-transfected L929-cells; assay: Flow cytometry binding to non-transfected L929 cells (control); parameters: species or system murine
Protocol: (§1) Murine L929 cells were transfected with an expression plasmid encoding human CA-XII. […] As a control, binding of EXO 6A10 to non-transfected L929-cells was tested (FIG. 10, grey area, L929). […] the binding of membrane localized overexpressed human CA-XII.

[3] = system: peripheral blood mononuclear cells (PBMC), melanoma cell lines; assay: Flow cytometry binding to peripheral blood mononuclear cells and melanoma cell lines; parameters: species or system human; conditions: hybridoma supernatant diluted 1:5
Protocol: FIG. 4A. Permanent human cancer cell lines were incubated with EXO 6A10 (hybridoma supernatant diluted 1:5 in 2% (v/v) FCS (i.e., fetal calf serum) in PBS) for 15 min on ice, washed three times in PBS/2% (v/v) FCS and then stained with a specific secondary antibody (goat-anti-rat IgG/Cy5) for another 15 min on ice. Binding of 6A10 was then measured by flow cytometry in a Becton Dickinson FACS Calibur device and FlowJo software (Treestar Inc.). An antibody of the identical isotype with an irrelevant specificity (glutathione-S-transferase) was used as control. (grey are=isotype control; black line=EXO 6A10). No binding to peripheral blood mononuclear cells (PBMC) and to two melanoma cell lines (not shown) was detectable. […] Exosomes were isolated from malignant ascites by differential centrifugation (500×g; 10.000×g; 70.000×g) and resuspended in PBS. The protein concentration was measured in a standard Bradford assay. 2 μg protein were pipetted onto a nitrocellulose membrane. Membranes were incubated with the different primary antibodies. After washing, membranes were incubated with a specific secondary antibodiy (anti-rat IgG/peroxidase). Ganglioside GM1 was detected with cholera toxine subunit B/peroxidase. Membranes were developed with the ECL system.

[4] = biological target: T1, CA-XII (Homo sapiens, UniProt O43570); assay: CA-XII inhibition by EXO 6A10 and azetazolamide; format: biochemical; conditions: compared to sulfonamid azedazolamide
[5] = system: A549 lung cancer cells; assay: Inhibition of metabolic activity and growth in 3-dimensional A549 tumour spheroids (MTT-assay, pictures); format: cell-based, human
Protocol: Metabolic acitivity of the spheroid was measured two days later by means of a MTT-assay and reading of the extinction at 595 nm (Cory et al. 1991). All data are represented as mean±standard error. Comparisons between non-treated and treated spheroids were performed using t-tests.
A549 lung cancer cells were plated onto a cushion consisting of 1% (v/v) agarose in PBS on a 96-well cell culture plate. […] Instead cells spontaneousely form 3-dimensional structures termed tumour spheroids.
FIG. 7, Upper: Some of the spheroids were cultivated in the presence of EXO 6A10 (final concentration 10 μg/ml) whereas others were cultivated with acetazolamide (AAZ, final concentration 100 μM). Control spheroids were cultivated without any additional treatment (Unbeh.). The metabolic acitivity of the spheroid was measured two days later by means of a MTT-assay as described and reading of the extinction at 595 nm (Cory et al. 1991). For each group, 10 spheroids were included, the mean value, the standard deviation were calculated. All data are represented as mean±standard error. Comparisons between non-treated and treated spheroids were performed using t-tests, calculated using Prism4 (GraphPad Software, La Jolla).
FIG. 7, Lower: A549 spheroids were cultivated for two days with EXO 6A10 or left untreated.

[6] = biological target: T1, CA-XII; assay: Flow cytometry binding to murine L929 cells transfected with human CA-XII; parameters: expressed in transfected cells; host or cells: murine L929 cells
Protocol: as §1

T1 sequence (O43570 25-354): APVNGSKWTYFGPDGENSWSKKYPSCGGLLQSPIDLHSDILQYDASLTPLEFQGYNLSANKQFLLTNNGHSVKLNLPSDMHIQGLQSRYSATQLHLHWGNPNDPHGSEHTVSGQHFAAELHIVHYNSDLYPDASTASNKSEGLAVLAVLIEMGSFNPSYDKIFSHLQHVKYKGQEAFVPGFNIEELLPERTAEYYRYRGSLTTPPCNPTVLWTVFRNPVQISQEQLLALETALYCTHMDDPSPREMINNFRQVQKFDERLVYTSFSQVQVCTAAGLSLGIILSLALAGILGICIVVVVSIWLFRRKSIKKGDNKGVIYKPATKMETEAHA

inhibition of CA-II [1]: does not significantly inhibit
inhibition of CA-XII enzyme activity relative to azedazolamide [4]: 40 times
binding to L929 cells transfected with human CA-XII [6]: binds to transfected
B1: EXO 6A10: rat monoclonal antibody raised to human CA-XII; CDRs SEQ ID NOs 1 to 6, VH SEQ ID NO. 7, VL SEQ ID NO. 8 (protein)
light: MARVFQQDDIVMTQTPATLSVTPGESVSLSCRASQGISTSIHWYQQKSNESPRLLIKFASQSISGIPSRFSGSGSGTDFTLSINRVESEDFSVYFCQQTYSLPYTFGAGTKLELKRADGCTNCIHLSRRSPTIFSAAMENRCSSFILSRFSGCILKLILRTMLTTSSGTVVGG
VH: EVKLEESGPGLVQPSETLSLTCTVSGFSLTTYSVSWVRQPSGKGPEWMGRMWYDGDTVYNSALKSRLSISRDTSKNQVFLKMNSLETDETGTYYCTRDFGYFDGSSPFDYWGQGVMVTVSSAETTAPSVYPLAPGTALKSNSMVTLGCLVKILLKNSSHPEDLAAALPIVSRITPDGYGVQAQVLKQLILFTMRKKQ
binding to non-transfected L929 cells [2]: not to non-transfected cells
binding to PBMC and two melanoma cell lines [3]: No binding
metabolic activity of spheroids (MTT-assay, extinction at 595 nm) ([5]; A549 spheroids, 10 μg/ml, two days): inhibition of metabolic activity
size and density of A549 spheroids ([5]; cultivated for two days, versus untreated spheroids): much smaller and much more dense
growth of tumour cell line A549 ([5]; hypotoxic culture conditions): inhibits the growth
